Results: article PMC4963399

T1: rhodopsin, P15409
T1 chain: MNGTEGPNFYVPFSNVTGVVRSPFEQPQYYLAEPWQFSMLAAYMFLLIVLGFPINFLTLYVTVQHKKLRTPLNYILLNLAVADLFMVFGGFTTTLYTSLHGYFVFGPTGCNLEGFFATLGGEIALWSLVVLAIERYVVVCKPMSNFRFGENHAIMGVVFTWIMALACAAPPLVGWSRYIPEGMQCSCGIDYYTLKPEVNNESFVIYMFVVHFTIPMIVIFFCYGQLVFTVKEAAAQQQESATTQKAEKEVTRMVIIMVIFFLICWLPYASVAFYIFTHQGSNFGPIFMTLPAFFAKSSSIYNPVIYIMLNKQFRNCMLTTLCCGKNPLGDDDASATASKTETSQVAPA


Biological target: T1, rhodopsin, P15409
Test: FRET or BRET; three cube sensitized acceptor emission FRET on single isolated rod outer segments of C57BL/6J mice co-transduced with two rAAV vectors (cerulean and citrine fusions); FRET imaging solution pH 7.4; FRET efficiency EA as mean ± SEM
Conditions: remark: other sources report otherwise

Binder | FRET efficiency EA
peripherin-2, N-terminally tagged with citrine, P15499 1-346 (natural protein) MALLKVKFDQKKRVKLAQGLWLMNWLSVLAGIVLFSLGLFLKIELRKRSEVMNNSESHFVPNSLIGVGVLSCVFNSLAGKICYDALDPAKYAKWKPWLKPYLAVCIFFNVILFLVALCCFLLRGSLESTLAYGLKNGMKYYRDTDTPGRCFMKKTIDMLQIEFKCCGNNGFRDWFEIQWISNRYLDFSSKEVKDRIKSNVDGRYLVDGVPFSCCNPSSPRPCIQYQLTNNSAHYSYDHQTEELNLWLRGCRAALLNYYSSLMNSMGVVTLLVWLFEVSITAGLRYLHTALESVSNPEDPECESEGWLLEKSVPETWKAFLESFKKLGKSNQVEAEGADAGPAPEAG | 4.52
peripherin-2, C-terminally tagged with citrine, P15499 1-346 (natural protein) MALLKVKFDQKKRVKLAQGLWLMNWLSVLAGIVLFSLGLFLKIELRKRSEVMNNSESHFVPNSLIGVGVLSCVFNSLAGKICYDALDPAKYAKWKPWLKPYLAVCIFFNVILFLVALCCFLLRGSLESTLAYGLKNGMKYYRDTDTPGRCFMKKTIDMLQIEFKCCGNNGFRDWFEIQWISNRYLDFSSKEVKDRIKSNVDGRYLVDGVPFSCCNPSSPRPCIQYQLTNNSAHYSYDHQTEELNLWLRGCRAALLNYYSSLMNSMGVVTLLVWLFEVSITAGLRYLHTALESVSNPEDPECESEGWLLEKSVPETWKAFLESFKKLGKSNQVEAEGADAGPAPEAG | 2.76
